Article PMC3902922 (Nucleic Acids Research, 2013)

Biological target: T1, Hop2-R176A–Mnd1 mutant complex (mouse, UniProt O35047 1-217; Q8K396 1-205, R176A)
T1 sequence 1: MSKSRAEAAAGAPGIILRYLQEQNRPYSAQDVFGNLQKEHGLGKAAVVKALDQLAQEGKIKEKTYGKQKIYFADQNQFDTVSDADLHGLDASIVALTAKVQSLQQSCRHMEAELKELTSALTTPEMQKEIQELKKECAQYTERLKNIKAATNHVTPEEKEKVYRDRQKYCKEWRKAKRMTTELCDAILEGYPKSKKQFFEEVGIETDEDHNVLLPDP
T1 sequence 2: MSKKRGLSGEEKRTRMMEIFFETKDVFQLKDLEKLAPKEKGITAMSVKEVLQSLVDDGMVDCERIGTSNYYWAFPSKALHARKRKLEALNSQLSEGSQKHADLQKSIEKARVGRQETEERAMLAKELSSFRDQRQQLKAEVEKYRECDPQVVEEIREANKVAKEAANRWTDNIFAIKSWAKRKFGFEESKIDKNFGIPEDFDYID
Test: pull-down

B1: Human DMC1 (natural protein)
chain: MKEDQVVAEEPGFQDEEESLFQDIDLLQKHGINVADIKKLKSVGICTIKGIQMTTRRALCNVKGLSEAKVDKIKEAANKLIEPGFLTAFEYSEKRKMVFHITTGSQEFDKLLGGGIESMAITEAFGEFRTGKTQLSHTLCVTAQLPGAGGYPGGKIIFIDTENTFRPDRLRDIADRFNVDHDAVLDNVLYARAYTSEHQMELLDYVAAKFHEEAGIFKLLIIDSIMALFRVDFSGRGELAERQQKLAQMLSRLQKISEEYNVAVFVTNQMTADPGATMTFQADPKKPIGGHILAHASTTRISLRKGRGELRIAKIYDSPEMPENEATFAITAGGIGDAKE
B1: binds.
